Patent US12448418B2, “Activatable therapeutic peptides and uses thereof” (priority 2022, dated 2025)

How the values were obtained:
[1] = tested on: Pseudomonas aeruginosa PAO1; assay: Antibacterial assay (MIC) on PAO1, conjugate with and without thrombin pre-cleavage; format: cell-based; conditions: for fold activity masking in term of antibacterial activity on PAO1: peptide formulated into ABD-AMP conjugate, with and without thrombin pre-cleavage (FIGS. 6A and B)
Excerpt: (§1) FIG. 3. In vitro evaluation of a model ABD-AMP conjugate. (A) Schematic of (ABD)2-(EEG)6-S12-(D)Pex. (B) Antibacterial assay on PAO1 treated with conjugate with and without thrombin pre-cleavage. OD600 indicates extent of bacteria viability. (C) MTS-based mammalian toxicity evaluation of L929 fibroblasts. (D) Hemolysis assay on mouse red blood cells.
(§2) FIG. 6. Evaluation of activity masking for alternative AMPs and alternative application. Antibacterial assay on PAO1 treated with (A) (ABD)2-(EEG)6-512-POL7080 and (B) (ABD)2-(EEG)6-S12-Colistin with and without thrombin pre-cleavage. OD600 indicates extent of bacteria viability. (C) Evaluation of anticancer activity masking of (ABD)2-(EEG)6-S12-(D)Pex on HepG2 cell line by an MTS assay.
(§3) To verify activity masking of our therapeutics, we evaluated antibacterial activity of our model ABD-AMP conjugate candidate ((ABD)2-(EEG)6-S12-(D)Pex) (FIG. 3A) with and without thrombin pre-activation on Pseudomonas aeruginosa PAO1. […] Overall, formulating AMP as an ABD-AMP conjugate provides an activity mask that can be activated with cleavage of the cleavable linker.
To ensure broad application across different therapeutic peptides, we formulated additional AMPS (POL7080 and colistin) into ABD-AMP conjugates and evaluated the extent of activity masking. […] Given that several AMPS are widely explored for anticancer property capitalizing on higher negative charge of cancer cell membrane, we determined whether ABD-AMP conjugate formulation could be utilized in the cancer context. Cell toxicity assay of (ABD)2-(EEG)6-S12-(D)Pex was performed on human hepatocellular carcinoma cell line HepG2 (FIG. 6C).

[2] = In vivo toxicity evaluation after intravenous treatment; conditions: for H&E staining of kidney sections, pathological features / H&E staining of spleen sections, pathological features / serum alanine aminotransferase (ALT) level / serum aspartate aminotransferase (AST) level / serum blood nitrogen urea (BUN) level: 10 mg/kg AMP equivalent dose
Excerpt: FIG. 5. In vivo toxicity evaluation of a model ABD-AMP conjugate. (A) Treatment groups and their body conditions. (B) Serum chemistry analysis of ALT, AST, and BUN. (C) H&E staining of spleen and kidneys sections. Arrows indicate protein casts or apoptotic bodies.
Given a favorable biodistribution profile of ABD-AMP conjugate, we next evaluated if our conjugate could improve safety profile of AMP. We performed toxicity evaluation in mice following intravenous treatments with free AMP (D)Pex or conjugate (ABD)2-(EEG)6-S12-(D)Pex at 5 and 10 mg/kg AMP equivalent doses (FIG. 5A). […] In the spleens of the (D)Pex-treated mice, patches of apoptotic lymphocytes were observed. These pathological features were not observed in mice treated with the conjugate at the equivalent AMP dose. Altogether, our conjugate formulation effectively improves safety profile of AMP following systemic administration.

[3] = Excerpt: FIG. 4. In vivo pharmacokinetic and biodistribution evaluations of a model ABD-AMP conjugate. […] (B) Pharmacokinetics of ABD-AMP-Cy7 conjugate and a free AMP-Cy7 control. (C) Experimental timeline for time-lapse biodistribution and conjugate activation evaluation in a PAO1 lung infection model. Quantification of intact and active AMP contents in (D) lungs, (E) kidneys, (F) liver, and (G) spleen at different time points. […] (I) Estimated fold change at equivalent lung exposure of active AMP content.
To study time-lapse biodistribution and conjugate activation in an infection context, we first infected mice with PAO1 via intratracheal instillation (IT) (FIG. 4C). The conjugate or free AMP control were intravenously (IV) administered 6 h post infection. The mice were euthanized at different time points, and organs were harvested and homogenized for quantification of conjugate and released AMP contents via SDS-PAGE analysis. […] Alternatively, when estimating at the equivalent lung exposure of active AMP, our conjugate reduced exposure of active AMP to kidneys, liver, and spleen by 3.1, 9.3, and 4.2 fold, respectively (FIG. 4I).

[4] = tested on: mouse red blood cells; conditions: intact conjugate
Excerpt: as §1, §3

[5] = tested on: L929 fibroblasts; conditions: intact conjugate; MTS
Excerpt: as §1, §3

[6] = tested on: human hepatocellular carcinoma cell line HepG2; assay: Cell toxicity (MTS) assay on HepG2, anticancer activity masking; format: cell-based
Excerpt: as §2
To ensure broad application across different therapeutic peptides, we formulated additional AMPS (POL7080 and colistin) into ABD-AMP conjugates and evaluated the extent of activity masking. A 64-fold activity masking was similarly observed for both peptides in term of antibacterial activity on PAO1 (FIGS. 6A and B) confirming robust activity masking of AMPS across diverse secondary structures. Given that several AMPS are widely explored for anticancer property capitalizing on higher negative charge of cancer cell membrane, we determined whether ABD-AMP conjugate formulation could be utilized in the cancer context. Cell toxicity assay of (ABD)2-(EEG)6-S12-(D)Pex was performed on human hepatocellular carcinoma cell line HepG2 (FIG. 6C). […] Altogether, ABD-AMP conjugate platform represents a generalizable platform for formulating diverse activatable therapeutic peptides for different disease applications with aberrant protease microenvironment such as microbial infection and cancer.

Cyclo-(T-W-I-(Dab)-(Orn)-(Dab)-(Dab)-W-(Dab)-(Dab)-A-S-p-P) (SEQ ID NO: 88) [POL7080]
fold activity masking in term of antibacterial activity on PAO1 [1]: 64 fold

6-methyloctanoic acid-Dab-Thr-Dab-(Dab-Dab-(D-Leu)-Leu-Dab-Dab-Thr) (SEQ ID NO: 84) [colistin]
fold activity masking in term of antibacterial activity on PAO1 [1]: 64 fold

CC[C@@H](C)[C@@H](NC(=O)CN)C(=O)NCC(=O)N[C@H](CCCCN)C(=O)N[C@H](Cc1ccccc1)C(=O)N[C@H](CC(C)C)C(=O)N[C@H](CCCCN)C(=O)N[C@H](CCCCN)C(=O)N[C@H](C)C(=O)N[C@H](CCCCN)C(=O)N[C@H](CCCCN)C(=O)N[C@H](Cc1ccccc1)C(=O)NCC(=O)N[C@H](CCCCN)C(=O)N[C@H](C)C(=O)N[C@H](Cc1ccccc1)C(=O)N[C@@H](C(=O)N[C@H](CCCCN)C(=O)N[C@@H](C(=O)N[C@H](CC(C)C)C(=O)N[C@H](CCCCN)C(=O)N[C@H](CCCCN)C(N)=O)[C@H](C)CC)C(C)C [(D)Pex, GiGkflkkakkfGkafvkilkk-CONH2 (SEQ ID NO: 74)]
mice that did not survive to the end point ([2]; 10 mg/kg, 24 h end point): 3 out of 5
H&E staining of kidney sections, pathological features ([2]; mice): significant damage
H&E staining of spleen sections, pathological features ([2]; mice): significant damage
serum alanine aminotransferase (ALT) level ([2]; mice): exceeding the reference range
serum aspartate aminotransferase (AST) level ([2]; mice): exceeding the reference range
serum blood nitrogen urea (BUN) level ([2]; mice): exceeding the reference range
body condition (signs of distress) ([2]; mice, 10 mg/kg, observed 24 h): evident signs of distress

B1: (ABD)2-(EEG)6-S12-(D)Pex-Cy7: Cy7-labelled model ABD-AMP conjugate, Table 8, SEQ ID NO: 158 (conjugate)
chain: GLKEAKEKAIEELKKAGITSDYYFDLINKAKTVEGVNALKDEILKAGGGGSGGGGSGGGGSLKEAKEKAIEELKKAGITSDYYFDLINKAKTVEGVNALKDEILKAHHHHHHSPSTPPTPSPSTPPEEGEEGEEGEEGEEGEEGPLGLRSWGCGIGKFLKKAKKFGKAFVKILKKK
modifications: Cy7 label; MISC_FEATURE - Chemically linked -(DBCO-Maleimide)-Azidoacetyl; SITE 155 MISC_FEATURE - D amino acid; MISC_FEATURE - D amino acid; SITE 176 MISC_FEATURE - linked to (Cy7)
fold increase in area-under-the-concentration-time curve (AUC), circulation ([3]; compared to the free (D)Pex-Cy7 control): 91 fold
AUC fold higher active AMP delivered to the lungs ([3]; mouse, in vivo): 2.6 fold
AUC fold reduction of active AMP exposure, kidneys ([3]; mouse, in vivo): 1.2 fold
AUC fold reduction of active AMP exposure, liver ([3]; mouse, in vivo): 3.6 fold
AUC fold reduction of active AMP exposure, spleen ([3]; mouse, in vivo): 1.6 fold
fold reduction of active AMP exposure, kidneys, at equivalent lung exposure ([3]; mouse, in vivo): 3.1 fold
fold reduction of active AMP exposure, liver, at equivalent lung exposure ([3]; mouse, in vivo): 9.3 fold
fold reduction of active AMP exposure, spleen, at equivalent lung exposure ([3]; mouse, in vivo): 4.2 fold

B2: (ABD)2-(EEG)6-S12-(D)Pex: model ABD-AMP conjugate, Table 8, SEQ ID NO: 157 (conjugate)
chain: GLKEAKEKAIEELKKAGITSDYYFDLINKAKTVEGVNALKDEILKAGGGGSGGGGSGGGGSLKEAKEKAIEELKKAGITSDYYFDLINKAKTVEGVNALKDEILKAHHHHHHSPSTPPTPSPSTPPEEGEEGEEGEEGEEGEEGPLGLRSWGCGIGKFLKKAKKFGKAFVKILKK
modifications: MISC_FEATURE - Chemically linked by a (DBCO-Maleimide)-Azidoacetyl; SITE 155 MISC_FEATURE - D amino acid; MISC_FEATURE - D amino acid
masking of hemolysis [4]: effectively mask
masking of mammalian toxicity on L929 fibroblasts [5]: effectively mask
H&E staining of kidney sections, pathological features ([2]; mice): not observed
H&E staining of spleen sections, pathological features ([2]; mice): not observed
serum alanine aminotransferase (ALT) level ([2]; mice): within the normal reference range
serum aspartate aminotransferase (AST) level ([2]; mice): within the normal reference range
serum blood nitrogen urea (BUN) level ([2]; mice): within the normal reference range
tolerability / body condition ([2]; mice, 5 and 10 mg/kg AMP equivalent doses, observed 24 h): well tolerated up to the highest dose tested with no signs of distress
fold higher minimum inhibitory concentration (MIC) of intact conjugate ([1]; intact conjugate versus thrombin pre-activated, PAO1, MIC = lowest treatment concentration that fully inhibits bacteria growth): 64 fold
cell toxicity on HepG2, after activation by target protease (Thrombin) ([6]; thrombin pre-cleaved): restored
cell toxicity on HepG2, intact conjugate ([6]; without protease activation): natively inactive
